# According to US20260193638A1:
# How the values were obtained:
# [1] = molecular target: T1, Thermus thermophilus SlyD-IGF-1 (74-90) chimeric polypeptide; experiment: ELISA, undiluted culture supernatant
# T1 sequence: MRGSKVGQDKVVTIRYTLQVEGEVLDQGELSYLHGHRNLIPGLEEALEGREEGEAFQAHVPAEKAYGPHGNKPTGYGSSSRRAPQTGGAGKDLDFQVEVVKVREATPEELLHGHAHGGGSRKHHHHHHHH
# [2] = molecular target: recombinant native human IGF-1 (human) (UniProt P05019); experiment: ELISA, undiluted culture supernatant
# [3] = molecular target: T2, recombinant wild-type Thermus thermophilus SlyD (His6 tagged control) (Thermus thermophilus); experiment: ELISA, undiluted culture supernatant
# T2 sequence: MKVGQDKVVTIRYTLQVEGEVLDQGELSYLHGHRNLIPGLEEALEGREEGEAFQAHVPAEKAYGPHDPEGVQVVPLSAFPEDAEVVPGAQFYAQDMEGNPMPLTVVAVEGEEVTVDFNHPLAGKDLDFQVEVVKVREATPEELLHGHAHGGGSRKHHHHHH
# [4] = molecular target: T1, Thermus thermophilus SlyD-IGF-1 (74-90) chimeric polypeptide; experiment: SPR at 25 °C, antibody captured, antigen in solution
# [5] = molecular target: recombinant native human IGF-1 (human) (UniProt P05019); experiment: as above
# [6] = molecular target: recombinant native human IGF-1 (human) (UniProt P05019); experiment: SPR at 37 °C, antibody captured, analyte in solution
# [7] = molecular target: T1, Thermus thermophilus SlyD-IGF-1 (74-90) chimeric polypeptide; experiment: as above
# [8] = molecular target: recombinant native human IGF-1 (human) (UniProt P05019); experiment: as above; remark: listed apart in the source
Binder,reactivity [1] [mE],reactivity [2] [mE],reactivity [3] [mE],Kd [4] [nM],MR [4],koff [4] [s⁻¹],kon [4] [M⁻¹ s⁻¹],t/2-diss [4] [min],Kd [5] [nM],MR [5],koff [5] [s⁻¹],kon [5] [M⁻¹ s⁻¹],t/2-diss [5] [min],Ka [6] [M⁻¹],Kd [6] [nM],koff [6] [s⁻¹],kon [6] [M⁻¹ s⁻¹],t/2-diss [6] [min],koff [7] [s⁻¹],t/2-diss [7] [min],further results
"monoclonal antibody M-11.11.17 (antibody, from a related filing, V domains shown) VH: QVQLQQSGAELVRPGSSVKISCKASGYAFSNLWMNWVKQRPGQGLEWIGQIYPGDGDTNYYGDFKGKATLTADSSSSTAYMQLSRLTSEDSAVYFCARIGYYGMDYWGQGTSVTVSS VL: DVVLTQTPLSLPVNIGDEASISCKSTKSLLSSDGLTYLDWYLQKPGQSPQVLIYLVSNRFSGVPDRFSGSGSGTDFTLKISRVEAEDLGVYYCFQSNYLPTFGAGTKLELK",2150,2430,32,0.01,2,1e-05,710000,1110,0.01,2,2.1e-05,2e+06,560,2.2e+10,0.046,0.00014,3.1e+06,81,1e-05,1160,koff [8]: 1e-05 s⁻¹; t/2-diss [8]: 1160 min
"monoclonal antibody M-10.7.9 (antibody, from a related filing, V domains shown) VH: QVQLQQSGAELVRPGSSVKISCKASGYAFSSYWMNWVKQRPGQGLEWIGQIYPGDGDTNHNGKFKGKATLTADKSSSTVYMQLSSLTSEDSAVYFCARSGDYYGKDYWGQGTTLTVSS VL: DIVLTQTPPSLPVNMGQKATISYKATKSLLNTDGYTYMHWNQQKPGQPPKLLIYLVSNRESGVPDRFSGSGSGTDFTLNINTVEEEDAATYYCHHSNELPHTFGAGTKLEIK",1900,2110,36,2.4,1.8,0.00069,290000,17,1.6,1.7,0.0015,920000,8,2.2e+08,4.5,0.006,1.3e+06,2,1e-05,1160,koff [8]: 1e-05 s⁻¹; t/2-diss [8]: 1160 min
